# Data as given in patent US20180238915A1 (published 2018).
# T1: negatively modulated GCSF receptor (GCSFR(-)) (UniProt Q99062 25-621, limits assumed, modified by S-HyNic and conjugated through HyNic-4FB bonds to a 64-base DNA oligonucleotide (SEQ. ID 2, 5' C12 amino modifier); number and sites not stated)
# T1 construct: Receptor-oligonucleotide conjugate; Receptor known only by catalogue number; also called nGCSFR; nTPR
# T1 sequence (looked up): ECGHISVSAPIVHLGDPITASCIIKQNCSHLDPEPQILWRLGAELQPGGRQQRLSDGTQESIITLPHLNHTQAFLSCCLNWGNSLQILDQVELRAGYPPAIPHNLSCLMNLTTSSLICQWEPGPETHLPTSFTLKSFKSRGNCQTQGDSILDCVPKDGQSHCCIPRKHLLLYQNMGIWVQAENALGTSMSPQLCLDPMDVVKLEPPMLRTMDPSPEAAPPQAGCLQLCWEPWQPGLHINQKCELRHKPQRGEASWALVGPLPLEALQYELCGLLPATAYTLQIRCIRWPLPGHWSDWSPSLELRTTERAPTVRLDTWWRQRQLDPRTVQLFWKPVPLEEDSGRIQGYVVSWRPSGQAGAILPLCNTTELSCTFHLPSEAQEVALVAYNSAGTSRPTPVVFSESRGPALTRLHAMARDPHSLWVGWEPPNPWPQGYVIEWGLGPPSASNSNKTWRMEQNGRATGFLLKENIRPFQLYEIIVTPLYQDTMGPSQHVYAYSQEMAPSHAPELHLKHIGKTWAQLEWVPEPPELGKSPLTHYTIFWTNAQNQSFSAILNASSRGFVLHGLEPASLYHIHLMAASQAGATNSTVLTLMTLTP
# T2: positively modulated granulocyte colony stimulating factor receptor (pGCSFR) (UniProt Q99062 25-621, limits assumed, C-terminal Lys carries 5-FAM; C-terminal amide (CONH2); N-terminus modified by 6-(BOC-hydrazino)nicotinic acid for conjugation to the receptor; modified by Sulfo-S-4FB and conjugated through a …)
# T2 construct: Receptor-peptide conjugate; Receptor known only by catalogue number
# T2 sequence: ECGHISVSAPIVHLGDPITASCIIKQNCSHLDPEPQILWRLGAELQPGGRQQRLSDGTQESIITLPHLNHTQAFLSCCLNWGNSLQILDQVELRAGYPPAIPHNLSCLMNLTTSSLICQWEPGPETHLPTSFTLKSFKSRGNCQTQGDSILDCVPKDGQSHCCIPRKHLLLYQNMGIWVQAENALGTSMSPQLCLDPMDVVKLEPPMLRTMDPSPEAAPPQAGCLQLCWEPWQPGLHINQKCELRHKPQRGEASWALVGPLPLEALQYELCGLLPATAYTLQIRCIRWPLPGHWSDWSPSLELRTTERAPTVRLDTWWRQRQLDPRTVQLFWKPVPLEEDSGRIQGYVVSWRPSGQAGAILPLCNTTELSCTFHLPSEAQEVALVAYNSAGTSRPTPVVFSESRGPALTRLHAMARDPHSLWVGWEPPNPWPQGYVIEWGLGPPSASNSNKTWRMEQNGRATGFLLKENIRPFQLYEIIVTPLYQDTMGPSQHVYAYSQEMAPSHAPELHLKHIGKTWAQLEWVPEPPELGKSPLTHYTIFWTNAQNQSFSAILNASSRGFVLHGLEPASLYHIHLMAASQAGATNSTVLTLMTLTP
# T2 sequence (peptide): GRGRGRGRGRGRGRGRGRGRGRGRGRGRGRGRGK
# Tests used:
# [1] = molecular target: T1, negatively modulated GCSF receptor …; assay: off-rate by negative MCM and electrokinetic concentration; 100 nM labeled drug, 1 uM negatively modulated receptor
# Protocol: The dissociation rate of drug-receptor binding, koff was measured by monitoring the evolution of the peak of complex and fitting it with the aforementioned derived equation.
# [2] = molecular target: T2, positively modulated granulocyte colony …; assay: direct assay by positive MCM and electrokinetic concentration; 1 nM pGCSFR, 0-81 nM G-CSF, 30 min incubation, 30 V 15 min
# Source text: The dose-response curves were plotted by fitting the experimental results with the classic second-order binding model.
Binder,dissociative half-life [1],Kd [2]
"labeled G-CSF (Alexa Fluor 488) (ligand, UniProt P09919-2 31-204, looked up, Alexa Fluor 488 label (carboxylic acid succinimidyl ester); sites not stated) TPLGPASSLPQSFLLKCLEQVRKIQGDGAALQEKLCATYKLCHPEELVLLGHSLGIPWAPLSSCPSQALQLAGCLSQLHSGLFLYQGLLQALEGISPELGPTLDTLQLDVADFATTIWQQMEELGMAPALQPTQGAMPAFASAFQRRAGGVLVASHLQSFLEVSYRVLRHLAQP",5.5 h,
"granulocyte colony stimulating factor (G-CSF) (ligand, UniProt P09919-2 31-204, looked up, Unlabeled Sandoz G-CSF) TPLGPASSLPQSFLLKCLEQVRKIQGDGAALQEKLCATYKLCHPEELVLLGHSLGIPWAPLSSCPSQALQLAGCLSQLHSGLFLYQGLLQALEGISPELGPTLDTLQLDVADFATTIWQQMEELGMAPALQPTQGAMPAFASAFQRRAGGVLVASHLQSFLEVSYRVLRHLAQP",,~0.7 nM
